This is an account of results in paper PMC11235169 (2024).

Experiment [1] has as its target recombinant sushi domain protein. The experiment in a line: fluorescence polarisation; competition: preformed complex of sushi domain protein (40 nM) and TMR-hAJAP17 (25 nM) outcompeted with unlabeled peptides (0.006 to 6.25 μM or 0.03 to 62.5 μM); 20 mM NaPi pH 6.8, 50 mM NaCl, 0.5 mM EDTA, 1% BSA, 25°C; Ki calculated from sigmoidal dose-response fits.
For experiment [2] the target is unchanged. The experiment in a line: ITC; 100 μM hAJAP17 or 300 μM W183C peptide injected into 10 or 30 μM sushi domain protein in the cell; 25°C; 20 mM NaPi pH 7.4; one-site binding model.
Experiment [3] deals with T1, TMR-hAJAP17 (human).
T1 chain: ETEFIAWGPTGDEEALE
Kind of experiment: fluorescence polarisation; saturation binding: sushi domain protein (0.73 to 1500 nM) added to TMR-hAJAP17 (25 nM); 20 mM NaPi pH 6.8, 50 mM NaCl, 0.5 mM EDTA, 1% BSA, 25°C; one-site binding model.

For experiment [4], the target named is T2, recombinant sushi domain protein.
T2 chain: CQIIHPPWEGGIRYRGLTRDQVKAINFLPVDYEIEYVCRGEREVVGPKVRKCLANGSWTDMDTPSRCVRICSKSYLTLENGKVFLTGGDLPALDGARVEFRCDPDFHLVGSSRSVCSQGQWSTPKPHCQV
The experiment in a line: ITC. A general note: ITC needs no label: the signal is the heat of the interaction.

Experiment [5] has the same target. Kind of experiment: FP.

For orientation: Ki means a measure of affinity in units of concentration, obtained from inhibition or displacement. Usually Kd stands for the equilibrium constant for the complex coming apart. What is called stoichiometry N is a count of units in the complex or per binding partner. For the molecule ETEFIAWGPTGDEEALE [hAJAP17], in experiment [1], the Ki was 60 nM. In experiment [2], the Kd worked out at 47 nM and the stoichiometry N stood at 1.

B1: recombinant sushi domain protein (domain or fragment)
chain: CQIIHPPWEGGIRYRGLTRDQVKAINFLPVDYEIEYVCRGEREVVGPKVRKCLANGSWTDMDTPSRCVRICSKSYLTLENGKVFLTGGDLPALDGARVEFRCDPDFHLVGSSRSVCSQGQWSTPKPHCQV
modifications: not checked
Molecule B1 came in with a Kd in experiment [3] of 20.4 nM.
For the molecule ETEFIACGPTGDEEALE [hAJAP17-W183C], in experiment [4], the Kd is 46.7 µM. The Ki in experiment [5] is 49.3 µM.

B2: mAJAP17-W183C (peptide)
chain: ETEFIACGPTGDEDALE
modifications: Limits taken by alignment with the printed human 17-mer … (177-193, W183 at position 7; W183 has the same number in mouse). C-terminal amide is likely, as printed for the TMR-hAJAP17 peptide, but is not stated for this one
Regarding B2, in experiment [5], the Ki came out at 44.8 µM.
